Experimental data published in US7265263B1, “Potato transcription factors, methods of use thereof, and a method for enhancing tuber development” (Iowa State University Research Foundation, Inc., priority 2002, dated 2007).

Key:
GAD protein alone = molecular target: T1, GAD protein alone (UniProt P04386 768-881, limits assumed); test: in vitro translated 35S-labelled proteins, immunoprecipitation with anti-GAD antibodies
T1 construct: Control of the immunoprecipitation
T1 sequence (looked up): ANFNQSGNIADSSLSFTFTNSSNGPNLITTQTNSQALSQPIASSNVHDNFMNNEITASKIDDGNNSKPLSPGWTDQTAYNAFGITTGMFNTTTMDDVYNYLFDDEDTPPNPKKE
Procedure: In vitro binding experiments were performed as described by Ni et al., "PIF3, a Phytochrome-Interacting Factor Necessary for Normal Photoinduced Signal Transduction, is a Novel Basic *Helix*-Loop-Helix Protein," *Cell* 95:657-667 (1998), which is hereby incorporated by reference in its entirety. The full-length sequence for POTH1 was cloned into a pET17b/GAD fusion cassette and transcribed under the control of the T7 promoter. The BEL cDNAs were cloned into pGEM11Z vectors and were transcribed under the control of the T7 promoter. ^35S-methionine labeled bait and prey proteins were synthesized using the TnT in vitro transcription-translation kit (Promega) according to the manufacturer's protocols. Each 50 μl TnT reaction contained 2.0 μg of template plasmid DNA and 20 μmol (20 μCi) of labeled ^35S-methionine. The POTH1:GAD/BEL complex was immunoprecipitated with anti-GAD antibodies (Santa Cruz Biotechnology, Calif.). The proteins from the pellet (one-half the fraction) and for the prey (one-fourth of the reaction volume) were resolved on a 10% SDS-PAGE gel and visualized by autoradiography.

CaMV 35S promoter = test: Transcription assay, GUS reporter driven by CaMV 35S promoter in tobacco protoplasts; format: cell-based, cauliflower mosaic virus
Procedure: FIGS. 24A-C show schematics of constructs (FIG. 24A) and the repression effect of StBEL-05 and POTH1 on the ga20ox1 promoter (FIG. 24B) and on the 35S CaMV promoter (FIG. 24C). The construct with the LUC gene under the control of the cauliflower mosaic virus (CaMV) 35S promoter was used as an internal control. Each transfection was performed three times. Relative GUS-LUC activity was calculated with reporter alone set as 100%. Data are means±SE.
For each transfection analysis, 700 μL of tobacco protoplasts (prepared as described above) were mixed with 30 μL 2 M KCl and plasmid DNA in an electroporation cuvette with 0.4-cm electrode gap. […]
Luciferase assays were performed by injecting 100-μL luciferase substrate (Promega, Madison, Wis.) into 20 μL of extract and measuring the emitted photons for 15 seconds in a TD-20 luminometer (Turner Designs, Sunnyvale, Calif.). […] A fluorescence multiwell plate reader, Fluoroskan II (MTX labs, Vienna, Va.), was used to measure GUS activity at 365 nm (excitation) and 455 nm (emission). Each sample was measured three times for both LUC and GUS activity. Relative GUS-LUC activity was calculated by dividing the ratio of GUS activity to LUC activity from different effectors with the ratio from reporter plasmid alone. Relative activities calculated from three transfection replications were presented as a mean±SE.

POTH1 = test: In vitro binding assay (immunoprecipitation) with POTH1; parameters: species or system Solanum tuberosum; settings: in vitro transcription/translation, anti-GAD
Sequence of POTH1 (as listed by the source): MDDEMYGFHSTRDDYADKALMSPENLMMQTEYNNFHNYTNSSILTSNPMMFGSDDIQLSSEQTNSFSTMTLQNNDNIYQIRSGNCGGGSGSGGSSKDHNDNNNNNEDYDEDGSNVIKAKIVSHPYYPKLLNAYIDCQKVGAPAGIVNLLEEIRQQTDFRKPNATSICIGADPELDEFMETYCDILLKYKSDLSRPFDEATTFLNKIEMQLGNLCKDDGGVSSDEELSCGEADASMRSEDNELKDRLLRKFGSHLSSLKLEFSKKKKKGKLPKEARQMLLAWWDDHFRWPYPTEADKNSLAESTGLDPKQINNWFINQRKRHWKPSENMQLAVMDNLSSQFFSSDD
Procedure: In vitro binding experiments were performed as described by Ni et al., “PIF3, a Phytochrome-Interacting Factor Necessary for Normal Photoinduced Signal Transduction, is a Novel Basic Helix-Loop-Helix Protein,” Cell 95:657-667 (1998), which is hereby incorporated by reference in its entirety. The full-length sequence for POTH1 was cloned into a pET17b/GAD fusion cassette and transcribed under the control of the T7 promoter. […] Each 50 μl TnT reaction contained 2.0 μg of template plasmid DNA and 20 μmol (20 μCi) of labeled ^35S-methionine. The POTH1:GAD/BEL complex was immunoprecipitated with anti-GAD antibodies (Santa Cruz Biotechnology, Calif.). The proteins from the pellet (one-half the fraction) and for the prey (one-fourth of the reaction volume) were resolved on a 10% SDS-PAGE gel and visualized by autoradiography.

[1] = test system: potato ga20ox1 promoter (P1, P2, P3) and first intron; test: Gel retardation assay with ga20ox1 promoter regions and first intron; format: binding
Source text: The first intron with partial flanking exon sequence (450 bp) of potato ga20ox1 and its promoter (981 bp, provided by Dr. Salomé Prat, CSIC Cantoblanco Campus, Univ. of Madrid, Spain) were used for gel mobility shift assays. Polymerase chain reaction (PCR) was used to amplify three regions of the promoter: -981 to 636 (P1), -660 to 307 (P2), and -331 to 0 (P3). About a 25-bp overlap was maintained between P1 and P2 or P2 and P3 in the chance that the protein-binding site would span the overlapped region. The first intron of this gene was amplified from potato genomic DNA by using PCR and the oligos 5′-[…]-3′ (SEQ ID NO:21) and 5′-[…]-3′ (SEQ ID NO:22) as primers. These primers were designed based on the site of the first intron of the tobacco GA20 oxidase gene Ntc12. The four fragments were purified on a 1.4% agarose gel and labeled with α^32P-dATP using Klenow fragment. […]
In the competition assays, unlabeled double-stranded DNA fragments (10×, 25×, 50×, 100×) were incubated with the recombinant protein before the addition of the radioactive probe. The dissociation rates were determined by adding 500-fold more cold DNA fragments to the DNA-binding reactions that were being incubated on ice, and loaded onto the running gel every 10 minutes. […]

B1: StBEL-05 protein from pGEM11Z (in vitro transcription/translation) (other)
chain: MYYQGTSDNTNIQADHQQRHNHGNSNNNNIQTLYLMNPNNYMQGYTTSDTQQQQQLLFLNSSPAASNALCHANIQHAPLQQQHFVGVPLPAVSLHDQINHHGLLQRMWNNQDQSQQVIVPSSTGVSATSCGGITTDLASQLAFQRPIPTPQHRQQQQQQGGLSLSLSPQLQQQISFNNNISSSSPRTNNVTIRGTLDGSSSNMVLGSKYLKAAQELLDEVVNIVGKSIKGDDQKKDNSMNKESMPLASDVNTNSSGGGESSSRQKNEVAVELTTAQRQELQMKKAKLLAMLEEVEQRYRQYHHQMQIIVLSFEQVAGIGSAKSYTQLALHAISKQFRCLKDAIAEQVKATSKSLGEEEGLGGKIEGSRLKFVDHHLRQQRALQQIGMMQPNAWRPQRGLPERAVSVLRAWLFEHFLHPYPKDSDKIMLAKQTGLTRSQVSNWFINARVRLWKPMVEEMYLEEVKNQEQNSTNTSGDNKNKETNISAPNEEKHPIITSSLLQDGITTTQAEISTSTISTSPTAGASLHHAHNFSFLGSFNMDNTTTTVDHIENNAKKQRNDMHKFSPSSILSSVDMEAKARESSNKGFTNPLMAAYAMGDFGRFDPHDQQMTANFHGNNGVSLTLGLPPSENLAMPVSQQNYLSNDLGSRSEMGSHYNRMGYENIDFQSGNKRFPTQLLPDFVTGNLGT
notes: 35S-methionine labelled prey; also called p11Z-5
GAD protein alone
  binding result: no binding
CaMV 35S promoter
  effect on the activity of the CaMV 35S promoter: Neither StBEL-05 nor POTH1 showed any effect
POTH1
  pull-down by POTH1 in immunoprecipitation: pulled down
[1]
  binding to ga20ox1 regulatory regions (mobility shift): retarded the mobility of all three promoter sequences and the first intron
